From patent US20030108554A1 (published 2003)

Experiments:
GIP130a = target: T1, GIP130a (human, UniProt Q4L180 1-1135); assay: yeast two-hybrid and three-hybrid (conclusion)
T1 construct: Full length; tested as GAL4 domain fusion in yeast two-hybrid
T1 sequence: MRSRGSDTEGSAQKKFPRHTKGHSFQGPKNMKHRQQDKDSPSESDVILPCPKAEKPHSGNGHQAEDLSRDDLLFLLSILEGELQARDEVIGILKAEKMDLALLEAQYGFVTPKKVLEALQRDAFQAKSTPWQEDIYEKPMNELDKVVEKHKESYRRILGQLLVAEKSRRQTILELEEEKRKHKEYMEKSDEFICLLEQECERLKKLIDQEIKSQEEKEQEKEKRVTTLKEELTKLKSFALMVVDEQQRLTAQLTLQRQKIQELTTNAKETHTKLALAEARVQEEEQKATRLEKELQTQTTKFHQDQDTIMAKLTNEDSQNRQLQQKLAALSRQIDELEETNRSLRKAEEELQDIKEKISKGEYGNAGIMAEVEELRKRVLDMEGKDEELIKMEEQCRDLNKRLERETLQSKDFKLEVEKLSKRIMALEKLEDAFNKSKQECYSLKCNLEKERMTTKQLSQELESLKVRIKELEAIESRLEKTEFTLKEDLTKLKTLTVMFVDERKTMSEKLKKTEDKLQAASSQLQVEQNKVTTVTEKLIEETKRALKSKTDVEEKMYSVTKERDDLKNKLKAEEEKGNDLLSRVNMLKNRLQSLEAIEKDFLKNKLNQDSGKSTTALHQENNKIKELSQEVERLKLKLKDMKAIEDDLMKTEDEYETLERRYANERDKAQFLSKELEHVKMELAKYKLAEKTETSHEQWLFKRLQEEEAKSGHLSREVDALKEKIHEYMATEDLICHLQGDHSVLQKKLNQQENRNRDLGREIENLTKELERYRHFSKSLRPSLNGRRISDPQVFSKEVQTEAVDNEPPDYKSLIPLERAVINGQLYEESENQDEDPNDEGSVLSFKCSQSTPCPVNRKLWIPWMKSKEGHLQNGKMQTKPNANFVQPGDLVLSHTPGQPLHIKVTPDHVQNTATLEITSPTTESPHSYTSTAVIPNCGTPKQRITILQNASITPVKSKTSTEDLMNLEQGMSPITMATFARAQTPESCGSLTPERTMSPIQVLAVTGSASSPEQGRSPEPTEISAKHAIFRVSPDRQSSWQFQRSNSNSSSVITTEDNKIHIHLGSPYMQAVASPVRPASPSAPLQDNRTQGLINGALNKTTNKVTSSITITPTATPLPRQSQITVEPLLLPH
Protocol: (§1) Accordingly, we have observed with a yeast three-hybrid system that GPBP expression efficiently impairs both I-20 and GIP90 aggregation, and that I-20 and GIP90 efficiently impair GPBP aggregation.
(§2) Deletion mutants were obtained using specific primers and PCR, followed by cloning of the resulting cDNAs in the pGBT9 and pGAD424 vectors. The assays were performed in SFY526 or HF7c Saccharomyces cerevisiae strains, with pGBT9 as GAL4 binding domain vector and pGAD424 as GAL4 activation domain vector, by the lift colony assay procedure. Briefly, the yeast cells were co-transformed with constructs of both binding domain and activation domain vectors, and the co-transformants were selected in medium deficient in both tryptophan and leucine. After five days of incubation at 30° C. the colonies were tested for the expression of β-galactosidase with X-Gal substrate (0.75 mg/ml). […] When the assays were performed with the HF7c strain, the interactions were assessed by the lift colony assay procedure and by growth in medium deficient in histidine, tryptophan and leucine. For yeast three-hybrid system, we used the pBRIDGE vector, which allows the conditional expression of a third protein apart from the usual GAL4 binding and activation domain-fusion proteins of the two-hybrid system. In this case, the expression of GPBP or I-20 or GIP90 was driven by Met25 promoter, active in absence of methionine. In these experiments, the transformed SFY526 cells were plated in medium deficient in tryptophan, leucine and methionine, and subjected to the colony lift assay after five days at 30° C. In the case of the strain HF7c the colonies grown in the cited plates were streaked on medium with the additional deficiency of histidine.

GIP130b = target: T2, GIP130b (human, UniProt Q4L180 1-1128); assay: yeast two-hybrid and three-hybrid (conclusion)
T2 construct: Full length; tested as GAL4 domain fusion in yeast two-hybrid
T2 sequence: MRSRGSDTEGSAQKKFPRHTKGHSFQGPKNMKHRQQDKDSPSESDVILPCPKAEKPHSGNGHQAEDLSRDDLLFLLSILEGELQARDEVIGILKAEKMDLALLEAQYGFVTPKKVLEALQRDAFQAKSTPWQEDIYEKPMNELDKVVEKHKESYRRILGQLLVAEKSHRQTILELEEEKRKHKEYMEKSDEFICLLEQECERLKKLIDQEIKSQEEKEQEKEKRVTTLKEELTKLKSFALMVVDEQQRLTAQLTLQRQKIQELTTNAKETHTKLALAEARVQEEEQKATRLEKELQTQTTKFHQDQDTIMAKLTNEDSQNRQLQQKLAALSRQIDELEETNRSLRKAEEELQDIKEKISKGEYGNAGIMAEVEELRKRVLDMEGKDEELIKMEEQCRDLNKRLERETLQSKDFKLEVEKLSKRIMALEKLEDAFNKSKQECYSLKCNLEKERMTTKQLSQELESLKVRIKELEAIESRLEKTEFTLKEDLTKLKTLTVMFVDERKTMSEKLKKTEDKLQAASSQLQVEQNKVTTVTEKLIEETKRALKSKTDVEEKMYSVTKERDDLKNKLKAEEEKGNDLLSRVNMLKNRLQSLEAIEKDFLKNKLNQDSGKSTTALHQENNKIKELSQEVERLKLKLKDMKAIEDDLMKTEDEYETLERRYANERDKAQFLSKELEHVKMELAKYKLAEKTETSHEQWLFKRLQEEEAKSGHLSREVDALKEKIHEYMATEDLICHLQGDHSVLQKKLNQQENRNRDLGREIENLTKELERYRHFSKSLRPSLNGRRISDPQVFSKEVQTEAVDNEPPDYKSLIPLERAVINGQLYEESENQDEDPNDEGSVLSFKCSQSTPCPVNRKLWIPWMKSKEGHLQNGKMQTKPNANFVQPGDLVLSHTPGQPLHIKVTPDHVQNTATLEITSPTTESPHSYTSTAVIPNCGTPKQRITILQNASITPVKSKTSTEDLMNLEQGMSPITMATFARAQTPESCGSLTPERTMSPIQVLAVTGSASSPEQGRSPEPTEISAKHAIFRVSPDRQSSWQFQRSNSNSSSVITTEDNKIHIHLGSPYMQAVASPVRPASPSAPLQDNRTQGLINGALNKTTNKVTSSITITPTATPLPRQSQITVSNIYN
Protocol: as §1, §2

B1: Goodpasture antigen binding protein (GPBP) (enzyme, UniProt Q9Y5P4 1-624, looked up)
chain: MSDNQSWNSSGSEEDPETESGPPVERCGVLSKWTNYIHGWQDRWVVLKNNALSYYKSEDETEYGCRGSICLSKAVITPHDFDECRFDISVNDSVWYLRAQDPDHRQQWIDAIEQHKTESGYGSESSLRRHGSMVSLVSGASGYSATSTSSFKKGHSLREKLAEMETFRDILCRQVDTLQKYFDACADAVSKDELQRDKVVEDDEDDFPTTRSDGDFLHSTNGNKEKLFPHVTPKGINGIDFKGEAITFKATTAGILATLSHCIELMVKREDSWQKRLDKETEKKRRTEEAYKNAMTELKKKSHFGGPDYEEGPNSLINEEEFFDAVEAALDRQDKIEEQSQSEKVRLHWPTSLPSGDAFSSVGTHRFVQKPYSRSSSMSSIDLVSASDDVHRFSSQVEEMVQNHMTYSLQDVGGDANWQLVVEEGEMKVYRREVEENGIVLDPLKATHAVKGVTGHEVCNYFWNVDVRNDWETTIENFHVVETLADNAIIIYQTHKRVWPASQRDVLYLSVIRKIPALTENDPETWIVCNFSVDHDSAPLNNRCVRAKINVAMICQTLVSPPEGNQEISRDNILCKITYVANVNPGGWAPASVLRAVAKREYPKFLKRFTSYVQEKTAGKPILF
notes: Protein kinase; Fusion parts are not written as pieces
What does the source list for B1?
binding result (GIP130a): binds; binding result (GIP130b): binds
